The numbers were not newly measured in PMC7809386, which cites them from elsewhere.

Where two headings read alike, the source gives them in different places.

Data set [1] concerns the target SecA (Escherichia coli) (UniProt P10408).
The target is the same in data set [2]. The source holds these as a separate data set.

Consider SecA (from UniProt P10408), for which the figures for the Kd in data set [1] and in data set [2] were 0.00074 µM and 0.1 µM, respectively.
